Test results published in the supplement of paper PMC11246515.
± gives the standard deviation of the averaged measurements.

Experiment: total protein half-life in vivo (active degradation + dilution); higher = more stable protein
[1] = E. coli NCM3722 delta-clpP delta-lon delta-hslV, growth: N-lim chemostat, doubling time 6 h
[2] = E. coli NCM3722 delta-clpP, growth: N-lim chemostat, doubling time 6 h
[3] = E. coli NCM3722 delta-hslV, growth: N-lim chemostat, doubling time 6 h
[4] = E. coli NCM3722 delta-lon, growth: N-lim chemostat, doubling time 6 h
[5] = E. coli NCM3722 delta-smpB, growth: N-lim chemostat, doubling time 6 h
[6] = wild type E. coli NCM3722, growth: C-lim chemostat, doubling time 3 h
[7] = wild type E. coli NCM3722, growth: C-lim chemostat, doubling time 6 h
[8] = wild type E. coli NCM3722, growth: C-lim chemostat, doubling time 12 h
[9] = wild type E. coli NCM3722, growth: N-lim chemostat, doubling time 6 h
[10] = wild type E. coli NCM3722, growth: N-lim chemostat, doubling time 12 h
[11] = wild type E. coli NCM3722, growth: P-lim chemostat, doubling time 6 h
[12] = wild type E. coli NCM3722, growth: P-lim chemostat, doubling time 12 h

Row | Sequence | total protein half-life in vivo [1] | total protein half-life in vivo [2] | total protein half-life in vivo [3] | total protein half-life in vivo [4] | total protein half-life in vivo [5] | total protein half-life in vivo [6] | total protein half-life in vivo [7] | total protein half-life in vivo [8] | total protein half-life in vivo [9] | total protein half-life in vivo [10] | total protein half-life in vivo [11] | total protein half-life in vivo [12]
1 | MTMTRLKISKTLLAVMLTSAVATGSAYAENNAQTTNESAGQKVDSSMNKVGNFMDDSAITAKVKAALVDHDNIKSTDISVKTDQKVVTLSGFVESQAQAEEAVKVAKGVEGVTSVSDKLHVRDAKEGSVKGYAGDTATTSEIKAKLLADDIVPSRHVKVETTDGVVQLSGTVDSQAQSDRAESIAKAVDGVKSVKNDLKTK [P0AFH8] | 3.62 ± 0.17 h | 4.7 ± 0.28 h | 5.73 ± 0.24 h | 5.7 ± 0.33 h | 5.25 ± 0.3 h | 2.96 ± 0.067 h | 5.39 ± 0.2 h | 8.26 ± 2.2 h | 5.5 ± 0.26 h | 11.3 ± 0.17 h | 4.9 ± 0.15 h | 9.28 ± 0.88 h
2 | MPEVQTDHPETAELSKPQLRMVDLNLLTVFDAVMQEQNITRAAHVLGMSQPAVSNAVARLKVMFNDELFVRYGRGIQPTARAFQLFGSVRQALQLVQNELPGSGFEPASSERVFHLCVCSPLDSILTSQIYNHIEQIAPNIHVMFKSSLNQNTEHQLRYQETEFVISYEDFHRPEFTSVPLFKDEMVLVASKNHPTIKGPLLKHDVYNEQHAAVSLDRFASFSQPWYDTVDKQASIAYQGMAMMSVLSVVSQTHLVAIAPRWLAEEFAESLELQVLPLPLKQNSRTCYLSWHEAAGRDKGHQWMEEQLVSICKR | 5.69 ± 0.67 h | 1.07 h |  |  |  |  |  |  |  |  |  | 
3 | MSQLNSVWVFSDNPERYAELFGGAQQWGQQVYAIVQNTDQAQAVMPYGPKCLYVLAQNDALQRTENYAESIAALLKDKHPAMLLLAATKRGKALAARLSVQLNAALVNDATAVDIVDGHICAEHRMYGGLAFAQEKINSPLAIITLAPGVQEPCTSDTSHQCPTETVPYVAPRHEILCRERRAKAASSVDLSKAKRVVGVGRGLAAQDDLKMVHELAAVLNAEVGCSRPIAEGENWMERERYIGVSGVLLKSDLYLTLGISGQIQHMVGGNGAKVIVAINKDKNAPIFNYADYGLVGDIYKVVPALISQLSR | 5.37 ± 0.057 h |  | 4.24 h |  |  |  |  |  |  | 6.04 h |  | 
4 | MNRIEHYHDWLRDAHAMEKQAESMLESMASRIDNYPELRARIEQHLSETKNQIVQLETILDRNDISRSVIKDSMSKMAALGQSIGGIFPSDEIVKGSISGYVFEQFEIACYTSLLAAAKNAGDTASIPTIEAILNEEKQMADWLIQNIPQTTEKFLIRSETDGVEAKK | 4.867 ± 0.043 h | 4.24 ± 0.64 h | 6.68 ± 0.67 h | 4.5 ± 0.39 h | 3.94 ± 0.3 h | 3.17 ± 0.17 h | 5.22 ± 0.1 h | 10.5 ± 1.5 h | 4.14 ± 0.32 h | 6.67 ± 0.1 h | 5.2 ± 0.7 h | 11.1 ± 0.76 h
5 | MTDHTMKKNPVSIPHTVWYADDIRRGEREAADVLGLTLYELMLRAGEAAFQVCRSAYPDARHWLVLCGHGNNGGDGYVVARLAKAVGIEVTLLAQESDKPLPEEAALAREAWLNAGGEIHASNIVWPESVDLIVDALLGTGLRQAPRESISQLIDHANSHPAPIVAVDIPSGLLAETGATPGAVINADHTITFIALKPGLLTGKARDVTGQLHFDSLGLDSWLAGQETKIQRFSAEQLSHWLKPRRPTSHKGDHGRLVIIGGDHGTAGAIRMTGEAALRAGAGLVRVLTRSENIAPLLTARPELMVHELTMDSLTESLEWADVVVIGPGLGQQEWGKKALQKVENFRKPMLWDADALNLLAINPDKRHNRVITPHPGEAARLLGCSVAEIESDRLHCAKRLVQRYGGVAVLKGAGTVVAAHPDALGIIDAGNAGMASGGMGDVLSGIIGALLGQKLSPYDAACAGCVAHGAAADVLAARFGTRGMLATDLFSTLQRIVNPEVTDKNHDESSNSAP | 5.24 ± 0.42 h | 4.62 ± 0.52 h | 4.91 ± 0.3 h | 5.56 ± 0.66 h | 4.42 ± 0.3 h | 3.2 ± 0.32 h | 6.53 ± 1.6 h | 10.1 ± 3.4 h | 4.25 ± 0.34 h | 8.83 ± 1.5 h | 5.62 ± 0.14 h | 11.3 ± 0.24 h
6 | MPKKNEAPASFEKALSELEQIVTRLESGDLPLEEALNEFERGVQLARQGQAKLQQAEQRVQILLSDNEDASLTPFTPDNE [P0A8G9] | 7.56 h | 5.9 h | 6.62 h |  |  |  | 6.16 ± 0.35 h | 14.4 h | 5.09 ± 0.59 h |  | 4.86 ± 0.049 h | 14.2 ± 1.7 h
7 | MLKFIQNNREITALLAVVLLFVLPGFLDRQYLSVQTLTMVYSSAQILILLAMGATLVMLTRNIDVSVGSITGMCAVLLGMLLNAGYSLPVACVATLLLGLLAGFFNGVLVAWLKIPAIVATLGTLGLYRGIMLLWTGGKWIEGLPAELKQLSAPLLLGVSAIGWLTIILVAFMAWLLAKTAFGRSFYATGDNLQGARQLGVRTEAIRIVAFSLNGCMAALAGIVFASQIGFIPNQTGTGLEMKAIAACVLGGISLLGGSGAIIGAVLGAWFLTQIDSVLVLLRIPAWWNDFIAGLVLLAVLVFDGRLRCALERNLRRQKYARFMTPPPSVKPASSGKKREAA |  |  |  |  |  | 3.42 h | 5.06 ± 1.6 h | 7.51 ± 1.3 h |  |  |  | 
8 | MTIKLIVGLANPGAEYAATRHNAGAWFVDLLAERLRAPLREEAKFFGYTSRVTLGGEDVRLLVPTTFMNLSGKAVAAMASFFRINPDEILVAHDELDLPPGVAKFKLGGGHGGHNGLKDIISKLGNNPNFHRLRIGIGHPGDKNKVVGFVLGKPPVSEQKLIDEAIDEAARCTEMWFTDGLTKATNRLHAFKAQ [P0A7D1] | 5.126 ± 0.023 h |  | 4.76 ± 0.084 h | 5.04 ± 0.51 h | 4.54 ± 0.08 h | 3.19 ± 0.081 h | 6.09 ± 0.37 h | 10.5 ± 0.85 h | 4.81 ± 0.17 h | 8.06 ± 0.66 h | 5.91 ± 0.13 h | 11.4 ± 0.29 h
9 | MTRAVKPRRFAIRPIIYASVLSAGVLLCAFSAHADERDQLKSIQADIAAKERAVRQKQQQRASLLAQLKKQEEAISEATRKLRETQNTLNQLNKQIDEMNASIAKLEQQKAAQERSLAAQLDAAFRQGEHTGIQLILSGEESQRGQRLQAYFGYLNQARQETIAQLKQTREEVAMQRAELEEKQSEQQTLLYEQRAQQAKLTQALNERKKTLAGLESSIQQGQQQLSELRANESRLRNSIARAEAAAKARAEREAREAQAVRDRQKEATRKGTTYKPTESEKSLMSRTGGLGAPRGQAFWPVRGPTLHRYGEQLQGELRWKGMVIGASEGTEVKAIADGRVILADWLQGYGLVVVVEHGKGDMSLYGYNQSALVSVGSQVRAGQPIALVGSSGGQGRPSLYFEIRRQGQAVNPQPWLGR | 6.31 ± 0.39 h | 6.29 ± 0.37 h | 6.76 ± 0.51 h | 7.049 ± 0.041 h | 6 ± 0.41 h | 3.18 ± 0.08 h | 5.778 ± 0.045 h | 11.3 ± 0.53 h | 6.31 ± 0.22 h | 13.1 ± 0.39 h | 5.92 ± 0.37 h | 12.9 ± 0.95 h
